Measured values: IntAct's records for PubMed 29039417

B1: Isoform 2 of Bardet-Biedl syndrome 7 protein (Homo sapiens), Q8IWZ6-2 (parent)
chain: MDLILNRMDYLQVGVTSQKTMKLIPASRHRATQKVVIGDHDGVVMCFGMKKGEAAAVFKTLPGPKIARLELGGVINTPQEKIFIAAASEIRGFTKRGKQFLSFETNLTESIKAMHISGSDLFLSASYIYNHYCDCKDQHYYLSGDKINDVICLPVERLSRITPVLACQDRVLRVLQGSDVMYAVEVPGPPTVLALHNGNGGDSGEDLLFGTSDGKLALIQITTSKPVRKWEIQNEKKRGGILCIDSFDIVGDGVKDLLVGRDDGMVEVYSFDNANEPVLRFDQMLSESVTSIQGGCVGKDSYDEIVVSTYSGWVTGLTTEPIHKESGPGEELKINQEMQNKISSLRNELEHLQYKVLQERENYQQSSQSSKAKSAVPSFGINDKFTLNKDDASYSLILEVQTAIDNVLIQSDVPIDLLDVDKNSAVVSFSSCDSESNDNFLLATYRCQADTTRLELKIRSIEGQYGTLQAYVTPRIQPKTCQVRQYHIKPLSLHQRTHFIDHDRPMNTLTLTGQFSFAEVHSWVVFCLPEVPEKPPAGECVTFYFQNTFLDTQLESTYRKGEGVFKSDNISTISILKDVLSKEATKRKINLNISYEINEVSVKHTLKLIHPKLEYQLLLAKKVQLIDALKELQIHEGNTNFLIPEYHCILEEADHLQEEYKKQPAHLERLYG
partner: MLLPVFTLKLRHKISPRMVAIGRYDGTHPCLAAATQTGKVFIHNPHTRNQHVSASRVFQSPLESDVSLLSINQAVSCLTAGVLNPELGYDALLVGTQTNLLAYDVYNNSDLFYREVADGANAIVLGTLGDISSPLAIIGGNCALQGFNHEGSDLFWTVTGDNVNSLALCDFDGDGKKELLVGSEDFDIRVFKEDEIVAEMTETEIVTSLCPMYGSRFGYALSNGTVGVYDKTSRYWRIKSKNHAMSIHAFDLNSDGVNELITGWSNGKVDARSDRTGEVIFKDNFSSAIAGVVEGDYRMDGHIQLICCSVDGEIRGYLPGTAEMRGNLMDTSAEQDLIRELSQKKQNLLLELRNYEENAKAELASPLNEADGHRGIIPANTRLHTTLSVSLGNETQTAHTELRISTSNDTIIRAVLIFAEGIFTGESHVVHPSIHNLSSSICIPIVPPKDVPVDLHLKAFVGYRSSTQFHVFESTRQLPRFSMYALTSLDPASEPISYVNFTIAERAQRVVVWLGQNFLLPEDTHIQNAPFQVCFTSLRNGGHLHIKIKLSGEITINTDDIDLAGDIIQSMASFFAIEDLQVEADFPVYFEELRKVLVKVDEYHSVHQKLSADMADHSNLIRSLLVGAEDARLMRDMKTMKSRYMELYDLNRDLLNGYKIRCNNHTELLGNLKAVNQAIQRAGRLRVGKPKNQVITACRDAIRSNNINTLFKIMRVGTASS

Variants of: B1
Conditions: with bbs2_human BBS2, Q9BXC9

| Variant | effect of a mutation on the interaction |
| --- | --- |
| E435A | with no effect |
| E435K | with no effect |
| A443K | with no effect |
| A443E | disrupting interaction strength |
| Y445E | with no effect |
| Y445K | with no effect |
| Y445A | with no effect |
| S436E | with no effect |
| S436A | with no effect |
| S436K | with no effect |
| D438A | with no effect |
| D438K | with no effect |
| D438E | with no effect |
| N423K | with no effect |
| N423A | with no effect |
| N423E | with no effect |
| S431A | with no effect |
| S431E | with no effect |
| S431K | with no effect |
| V426A | with no effect |
| V426E | with no effect |
| V426K | with no effect |
| F429A | with no effect |

| Variant | effect of a mutation on the interaction |
| --- | --- |
| F429K | with no effect |
| F429E | with no effect |
| V427K | with no effect |
| V427A | with no effect |
| V427E | with no effect |
| R446E | with no effect |
| R446K | with no effect |
| R446A | with no effect |
| D450K | with no effect |
| D450A | with no effect |
| D450E | with no effect |
| T451A | with no effect |
| T451E | with no effect |
| T451K | with no effect |
| C432K | with no effect |
| C432E | with no effect |
| C432A | with no effect |
| D421E | with no effect |
| D421K | with no effect |
| L442K | with no effect |
| L442A | with no effect |
| L442E | with no effect |
| L442P | disrupting interaction strength |

| Variant | effect of a mutation on the interaction |
| --- | --- |
| T444E | with no effect |
| T444A | with no effect |
| T444K | with no effect |
| S424E | with no effect |
| S424K | with no effect |
| S424A | with no effect |
| N437K | with no effect |
| N437A | with no effect |
| N437E | with no effect |
| C447E | with no effect |
| C447K | with no effect |
| C447Y | disrupting interaction strength |
| C447A | with no effect |
| K422A | with no effect |
| K422E | with no effect |
| A449K | with no effect |
| A449T | disrupting interaction strength |
| A449E | with no effect |
| F440K | with no effect |
| F440E | with no effect |
| F440A | with no effect |
| A425K | with no effect |
| A425E | with no effect |

| Variant | effect of a mutation on the interaction |
| --- | --- |
| S428K | with no effect |
| S428A | with no effect |
| S428E | with no effect |
| S434A | with no effect |
| S434E | with no effect |
| S434K | with no effect |
| Q448E | with no effect |
| Q448K | disrupting interaction strength |
| Q448A | with no effect |
| D433A | with no effect |
| D433E | with no effect |
| D433K | with no effect |
| S430E | with no effect |
| S430A | with no effect |
| S430K | with no effect |
| N439K | with no effect |
| N439A | disrupting interaction strength |
| N439E | with no effect |
| L441A | with no effect |
| L441K | with no effect |
| L441E | with no effect |

Other lines, results leading:

| effect of a mutation on the interaction | Variant |
| --- | --- |
| with no effect | G463E |
| with no effect | G463K |
| with no effect | G463A |
| disrupting interaction strength | E455K |
| with no effect | E455A |
| with no effect | T467A |
| with no effect | T467K |
| with no effect | T467E |
| disrupting interaction strength | G466Y |
| disrupting interaction strength | G466E |
| with no effect | G466A |
| disrupting interaction strength | G466D |
| with no effect | G466K |
| with no effect | Y465A |
| with no effect | Y465K |
| with no effect | Y465E |
| with no effect | P474A |
| disrupting interaction strength | P474K |
| disrupting interaction strength | P474E |
| with no effect | Q477K |
| disrupting interaction strength | Q477A |
| with no effect | Q477E |

| effect of a mutation on the interaction | Variant |
| --- | --- |
| with no effect | Y471A |
| with no effect | Y471E |
| with no effect | Y471K |
| with no effect | L468E |
| disrupting interaction strength | L468P |
| with no effect | L468A |
| with no effect | L468K |
| with no effect | R453K |
| with no effect | R453E |
| with no effect | R453A |
| disrupting interaction strength | I458E |
| disrupting interaction strength | I458A |
| disrupting interaction strength | I458K |
| disrupting interaction strength | I458Q |
| with no effect | L456E |
| with no effect | L456K |
| with no effect | L456A |
| with no effect | S460A |
| with no effect | S460E |
| with no effect | S460K |
| with no effect | I461E |
| with no effect | I461K |

| effect of a mutation on the interaction | Variant |
| --- | --- |
| with no effect | I461A |
| with no effect | R475K |
| with no effect | R475E |
| disrupting interaction strength | R475A |
| with no effect | Q464A |
| with no effect | Q464K |
| with no effect | Q464E |
| with no effect | I476K |
| disrupting interaction strength | I476A |
| with no effect | I476E |
| with no effect | K479E |
| with no effect | K479A |
| with no effect | T452E |
| with no effect | T452A |
| with no effect | T452K |
| with no effect | T473K |
| with no effect | T473A |
| with no effect | T473E |
| with no effect | E462A |
| with no effect | E462K |
| with no effect | R459A |
| with no effect | R459E |

| effect of a mutation on the interaction | Variant |
| --- | --- |
| with no effect | R459K |
| with no effect | T480A |
| with no effect | P478E |
| with no effect | P478K |
| with no effect | P478A |
| with no effect | L454A |
| with no effect | L454K |
| with no effect | L454E |
| with no effect | V472A |
| disrupting interaction strength | V472E |
| with no effect | V472K |
| disrupting interaction strength | V472M |
| with no effect | A470K |
| with no effect | A470E |
| with no effect | Q469E |
| disrupting interaction strength | Q469A |
| with no effect | Q469K |
| with no effect | K457E |
| with no effect | K457A |

Variants of: B1
Conditions: with bbs2_human BBS2, Q9BXC9
Remark: another data set of the same source

| effect of a mutation on the interaction | Variant |
| --- | --- |
| with no effect | I458E |
